Results reported in publication PMC11735773.

Target: SARS-CoV-2 nucleoprotein (NP) (SARS-CoV-2, UniProt P0DTC9 1-419)

GGGGGGGGGGGG (structured_RNA, phosphorothioate linkages) [TAMRA-G12(S)]
binding result: binds
